Blank lines part the entries; values can stand above or below the binder they belong to.
Legend:
[1] = molecular target: T1, ABCG5/G8 heterodimer (ATP-binding cassette transporters ABCG5 and ABCG8), human, full length (Homo sapiens, UniProt Q9H222;Q9H221); assay: SPR; Biacore T200, CM5 chip with goat anti-mouse IgG Fc antibody capturing the mouse anti-ABCG5/G8 mAbs (~100 Ru); ABCG5/G8 in DDM micelles, multicycle kinetics, 6 pM to 100 nM, 50 µL/min, 180 s association, 1800 s dissociation (the legend of Fig. 1 says instead that mAb was injected over immobilized ABCG5/G8); conditions: both partners purified
T1 construct: ABCG5, human, full length; followed by a TEV protease cleavage site and a 12 His tag on the C-terminus; ABCG8, human, full length; In DDM micelles for SPR and the ATPase assay; in saposin A-based nanodiscs for cryo-EM; also called ABCG5/ABCG8; source: Pichia pastoris (ATUM-9016 strain), membranes extracted with DDM, purified (HisTrap, Superdex 200)

[2] = molecular target: T2, ABCG8 (ATP-binding cassette transporter G8), human, full length, half transporter of the ABCG5/G8 heterodimer (human, UniProt Q9H221); assay: cryo-EM structure; ternary complex of ABCG5/G8 with Fab 2E10 and Fab 11F4, purified by size exclusion, in saposin A-based nanodiscs; nucleotide-free, inward-facing; 3.3 Å; conditions: both partners purified
T2 construct: ABCG8, human, full length; Same chain as the second chain of m1; written alone for the contacts seen in the structure; First residue seen in the cryo-EM structure is Phe28; source: Pichia pastoris (ATUM-9016 strain), expressed with ABCG5 and purified as the heterodimer (HisTrap, Superdex 200)
T2 sequence (Q9H221 whole entry, one chain of several): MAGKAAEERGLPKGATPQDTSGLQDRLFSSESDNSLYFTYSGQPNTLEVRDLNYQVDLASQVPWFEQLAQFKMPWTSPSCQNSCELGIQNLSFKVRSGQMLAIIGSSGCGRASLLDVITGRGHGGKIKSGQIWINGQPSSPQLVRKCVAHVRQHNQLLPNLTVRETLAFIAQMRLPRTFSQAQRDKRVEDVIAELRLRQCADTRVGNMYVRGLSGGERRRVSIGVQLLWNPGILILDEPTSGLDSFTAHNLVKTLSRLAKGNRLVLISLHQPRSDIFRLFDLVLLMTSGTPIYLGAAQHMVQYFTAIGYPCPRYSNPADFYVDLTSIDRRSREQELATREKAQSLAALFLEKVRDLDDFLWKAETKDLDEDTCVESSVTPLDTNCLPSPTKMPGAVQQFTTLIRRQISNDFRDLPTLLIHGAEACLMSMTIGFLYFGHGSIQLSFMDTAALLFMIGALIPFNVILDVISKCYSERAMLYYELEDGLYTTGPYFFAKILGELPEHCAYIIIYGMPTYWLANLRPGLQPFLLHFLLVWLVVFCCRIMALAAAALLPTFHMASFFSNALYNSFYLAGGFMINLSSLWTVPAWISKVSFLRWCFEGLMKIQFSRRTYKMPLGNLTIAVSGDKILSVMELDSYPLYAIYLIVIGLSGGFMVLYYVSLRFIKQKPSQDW

T1 sequence (Q9H222 whole entry, chain 1 of 2): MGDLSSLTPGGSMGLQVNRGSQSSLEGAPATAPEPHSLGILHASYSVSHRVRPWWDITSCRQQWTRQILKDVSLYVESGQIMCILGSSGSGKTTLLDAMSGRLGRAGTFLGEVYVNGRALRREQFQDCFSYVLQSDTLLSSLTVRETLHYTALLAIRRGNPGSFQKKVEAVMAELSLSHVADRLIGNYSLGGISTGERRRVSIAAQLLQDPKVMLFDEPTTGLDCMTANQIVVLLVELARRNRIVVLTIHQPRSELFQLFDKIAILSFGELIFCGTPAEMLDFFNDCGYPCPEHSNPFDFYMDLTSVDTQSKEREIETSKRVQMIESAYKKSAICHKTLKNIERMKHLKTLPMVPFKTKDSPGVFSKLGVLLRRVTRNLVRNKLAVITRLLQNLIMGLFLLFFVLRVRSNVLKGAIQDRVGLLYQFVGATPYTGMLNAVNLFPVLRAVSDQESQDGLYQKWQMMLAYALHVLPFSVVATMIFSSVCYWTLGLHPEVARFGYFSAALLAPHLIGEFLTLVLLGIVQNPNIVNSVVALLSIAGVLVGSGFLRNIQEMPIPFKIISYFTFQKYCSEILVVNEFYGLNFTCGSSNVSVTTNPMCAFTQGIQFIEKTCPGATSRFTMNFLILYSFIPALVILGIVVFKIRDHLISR
T1 sequence (Q9H221 whole entry, chain 2 of 2): as the sequence (Q9H221 whole entry, one chain of several) above

B1: monoclonal antibody 2E10 against ABCG5/G8 (antibody, V domains shown)
VH: QVHLQQSGAELVRPGTSVKMSCKAAGYTFTYWWIGWLKQRPGHGLEWIGDFFPVSGHTNFNEKFRDKATLTADTSSSTAYMQLNSLTSEDSAIYYCARKQDSSGPLYAMDYWGQGTSVTVSS
VL: DIQMTQSSSYLSVSLGGRVTITCKASDHINNWLAWYQQKPGNAPRLLISAATSLETGVPSRFSGSGSGKDYTLSIISLQTEDVATYYCQQYWSTPFTFGSGTKLEIK
notes: the Fab part of the heavy chain is in PDB 7JR7 (as the heavy chain of m4); as the light chain of m4, in PDB 7JR7; Mouse IgG (captured by goat anti-mouse IgG Fc); also called mAb 2E10; source: produced at the antibody core facility at Oregon Health Science University
Kd [1]: 0.11 nM

B4: Fab fragment of monoclonal antibody 11F4 (Fab, V domains shown)
VH: DVQLQESGPGLVKPSQSLSLTCTITGYSITSDYAWNWIRQFPGNKLEWMGYISYSGTTYYNPSLKSRFSITRDTSRNQFFLQFNSVTTEDTGTYFCARMITTVYYFDYWGQGTTLTVSS
VL: QIVLTQSPTIMSASLGERVTMTCTASSSASSSYLHWYQQKPGSSPKLWIYSTSNLASGVPARFSGSGSGTSYSLTISNMEAEDAATYYCHQHHRSPPTFGAGTKLELK
notes: also called Fab 11F4; Fab11F4; source: papain cleavage of mAb 11F4, purified by gel filtration chromatography
binding result [2]: binds

More lines, now with the values ahead:

binding result [2]: binds
B2: Fab fragment of monoclonal antibody 2E10 (Fab, V domains shown)
VH: B1 VH
VL: B1 VL
notes: also called Fab 2E10; source: papain cleavage of mAb 2E10, purified by gel filtration chromatography

Kd [1]: 0.12 nM
B3: monoclonal antibody 11F4 against ABCG5/G8 (antibody, V domains shown)
VH: B4 VH
VL: B4 VL
notes: the Fab part of the heavy chain is in PDB 7JR7 (as the heavy chain of m5); as the light chain of m5, in PDB 7JR7; Mouse IgG (captured by goat anti-mouse IgG Fc); also called mAb 11F4; source: produced at the antibody core facility at Oregon Health Science University

Source: paper PMC8100176, “Cryo-EM structure of ABCG5/G8 in complex with modulating antibodies” (Communications Biology, 2021)
